From paper PMC314469, “Protein Interaction Networks by Proteome Peptide Scanning” (PLoS Biology, 2004)

Columns and labels:
[1] = biological target: T1, amphyphisin SH3 (AMPH_HUMAN), P49418; assay: SPOT array
T1 chain: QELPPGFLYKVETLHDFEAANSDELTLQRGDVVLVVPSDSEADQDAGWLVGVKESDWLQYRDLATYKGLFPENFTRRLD

[2] = biological target: endophilin SH3 (SH3G2_HUMAN), Q99962; assay: SPOT array

PSGHIKRPMNAFMV [Q06945 55-68]
normalised SPOT signal, Boehringer light units (BLU); mean over the file's lines of this peptide [1]: 47.9 | normalised SPOT signal, Boehringer light units (BLU); mean over the file's lines of this peptide [2]: 75.8

ASPSLERPEKGAGK [Q13601 2-15]
normalised SPOT signal, Boehringer light units (BLU); mean over the file's lines of this peptide [1]: 15 | normalised SPOT signal, Boehringer light units (BLU); mean over the file's lines of this peptide [2]: 175

PSGPPARPSRSMWD [Q9NXK1 363-376]
normalised SPOT signal, Boehringer light units (BLU); mean over the file's lines of this peptide [1]: 3350 | normalised SPOT signal, Boehringer light units (BLU); mean over the file's lines of this peptide [2]: 2740

PSIIFRRPEEAALS [Q9BZD6 162-175]
normalised SPOT signal, Boehringer light units (BLU); mean over the file's lines of this peptide [1]: 34.1 | normalised SPOT signal, Boehringer light units (BLU); mean over the file's lines of this peptide [2]: 48.3

PSLLPPRPPPALSL [Q9NRR6 185-199]
normalised SPOT signal, Boehringer light units (BLU); mean over the file's lines of this peptide [1]: 82.9 | normalised SPOT signal, Boehringer light units (BLU); mean over the file's lines of this peptide [2]: 5800

PSLRPLKPPPPPRQ [Q96DL6 53-67]
normalised SPOT signal, Boehringer light units (BLU); mean over the file's lines of this peptide [1]: 876 | normalised SPOT signal, Boehringer light units (BLU); mean over the file's lines of this peptide [2]: 4590

PSMDFNRPGKRAPW [Q9UFP0 807-820]
normalised SPOT signal, Boehringer light units (BLU); mean over the file's lines of this peptide [1]: 77.6 | normalised SPOT signal, Boehringer light units (BLU); mean over the file's lines of this peptide [2]: 460

PSNPIRRPISADSA [Q00610 58-71]
normalised SPOT signal, Boehringer light units (BLU); mean over the file's lines of this peptide [1]: 35.4 | normalised SPOT signal, Boehringer light units (BLU); mean over the file's lines of this peptide [2]: 47.5

PSNPPPRPPAEARK [P13498 150-164]
normalised SPOT signal, Boehringer light units (BLU); mean over the file's lines of this peptide [1]: 182 | normalised SPOT signal, Boehringer light units (BLU); mean over the file's lines of this peptide [2]: 991

PSPALPRPSRSSPG [Q9UPX1 609-622]
normalised SPOT signal, Boehringer light units (BLU); mean over the file's lines of this peptide [1]: 778 | normalised SPOT signal, Boehringer light units (BLU); mean over the file's lines of this peptide [2]: 2060

PSPGPSRPPHGTQA [P43681 443-457]
normalised SPOT signal, Boehringer light units (BLU); mean over the file's lines of this peptide [1]: 47 | normalised SPOT signal, Boehringer light units (BLU); mean over the file's lines of this peptide [2]: 128

PSPLPPKPPFPGPG [Q8WVQ3 114-128]
normalised SPOT signal, Boehringer light units (BLU); mean over the file's lines of this peptide [1]: 43.5 | normalised SPOT signal, Boehringer light units (BLU); mean over the file's lines of this peptide [2]: 843

ASPTPKRPSENMLI [O75592 2352-2365]
normalised SPOT signal, Boehringer light units (BLU); mean over the file's lines of this peptide [1]: 43.4 | normalised SPOT signal, Boehringer light units (BLU); mean over the file's lines of this peptide [2]: 43.3

PSPNFKRPYQRFQW [Q9HBF9 133-146]
normalised SPOT signal, Boehringer light units (BLU); mean over the file's lines of this peptide [1]: 43.9 | normalised SPOT signal, Boehringer light units (BLU); mean over the file's lines of this peptide [2]: 71.3

PSPSPARPPGTSPP [Q8TDP0 823-837]
normalised SPOT signal, Boehringer light units (BLU); mean over the file's lines of this peptide [1]: 31.2 | normalised SPOT signal, Boehringer light units (BLU); mean over the file's lines of this peptide [2]: 67.6

PSQPPPRPPPDYLR [Q9H013 786-800]
normalised SPOT signal, Boehringer light units (BLU); mean over the file's lines of this peptide [1]: 68.9 | normalised SPOT signal, Boehringer light units (BLU); mean over the file's lines of this peptide [2]: 1790

PSQVPPRPPPPRLP [Q9UDM5 470-484]
normalised SPOT signal, Boehringer light units (BLU); mean over the file's lines of this peptide [1]: 2340 | normalised SPOT signal, Boehringer light units (BLU); mean over the file's lines of this peptide [2]: 12300

PSQVPRRPHHTPFQ [Q9HBS1 152-165]
normalised SPOT signal, Boehringer light units (BLU); mean over the file's lines of this peptide [1]: 43.1 | normalised SPOT signal, Boehringer light units (BLU); mean over the file's lines of this peptide [2]: 1670

PSRFIRRPSTTISP [O75916 510-523]
normalised SPOT signal, Boehringer light units (BLU); mean over the file's lines of this peptide [1]: 42 | normalised SPOT signal, Boehringer light units (BLU); mean over the file's lines of this peptide [2]: 364

PSRLPRRPNDIYVN [O75817 27-40]
normalised SPOT signal, Boehringer light units (BLU); mean over the file's lines of this peptide [1]: 38.8 | normalised SPOT signal, Boehringer light units (BLU); mean over the file's lines of this peptide [2]: 41.9

PSRPPRRPPWGRGS [Q99785 97-111]
normalised SPOT signal, Boehringer light units (BLU); mean over the file's lines of this peptide [1]: 10100 | normalised SPOT signal, Boehringer light units (BLU); mean over the file's lines of this peptide [2]: 12300

PSRPPSRPSRPPSH [Q99700 584-597]
normalised SPOT signal, Boehringer light units (BLU); mean over the file's lines of this peptide [1]: 11900 | normalised SPOT signal, Boehringer light units (BLU); mean over the file's lines of this peptide [2]: 11400

PTSSPHRPHRLPLA [O95327 205-218]
normalised SPOT signal, Boehringer light units (BLU); mean over the file's lines of this peptide [1]: 248 | normalised SPOT signal, Boehringer light units (BLU); mean over the file's lines of this peptide [2]: 166

ASQSPKKPPAKDPL [Q9NTY7 879-893]
normalised SPOT signal, Boehringer light units (BLU); mean over the file's lines of this peptide [1]: 57.6 | normalised SPOT signal, Boehringer light units (BLU); mean over the file's lines of this peptide [2]: 60.6

PTEGPRRPPPRPPS [Q9BVH8 774-788]
normalised SPOT signal, Boehringer light units (BLU); mean over the file's lines of this peptide [1]: 3310 | normalised SPOT signal, Boehringer light units (BLU); mean over the file's lines of this peptide [2]: 3050

PTGQPRRPRNLAAA [Q00325 36-49]
normalised SPOT signal, Boehringer light units (BLU); mean over the file's lines of this peptide [1]: 66 | normalised SPOT signal, Boehringer light units (BLU); mean over the file's lines of this peptide [2]: 254

PTGSLRRPLGPHAP [Q9H3T3 825-838]
normalised SPOT signal, Boehringer light units (BLU); mean over the file's lines of this peptide [1]: 15.7 | normalised SPOT signal, Boehringer light units (BLU); mean over the file's lines of this peptide [2]: 35

PTILPSRPQRSASH [Q16671 539-552]
normalised SPOT signal, Boehringer light units (BLU); mean over the file's lines of this peptide [1]: 17500 | normalised SPOT signal, Boehringer light units (BLU); mean over the file's lines of this peptide [2]: 9690

PTKSIKRPSPAEKS [Q9HC35 168-181]
normalised SPOT signal, Boehringer light units (BLU); mean over the file's lines of this peptide [1]: 7.4 | normalised SPOT signal, Boehringer light units (BLU); mean over the file's lines of this peptide [2]: 75.3

AASGIKRPMASEVL [Q99755 29-42]
normalised SPOT signal, Boehringer light units (BLU); mean over the file's lines of this peptide [1]: 48.8 | normalised SPOT signal, Boehringer light units (BLU); mean over the file's lines of this peptide [2]: 116

PTQELRRPSKSMDK [Q9C098 170-183]
normalised SPOT signal, Boehringer light units (BLU); mean over the file's lines of this peptide [1]: 48.6 | normalised SPOT signal, Boehringer light units (BLU); mean over the file's lines of this peptide [2]: 35
